These results are taken from paper PMC8996997, “YY1 Oligomerization Is Regulated by Its OPB Domain and Competes with Its Regulation of Oncoproteins” (Cancers, 2022).

In this experiment the target is T1, His×6-YY1(wt) (human, UniProt P25490 1-414).
T1 construct: Yin Yang 1 (YY1), wild type; also called Yin Yang 1; source: bacteria, recombinant, purified
The experiment is described as follows: SPR; Biacore T200; about 12,000 RU of His×6-YY1(wt) immobilised by amine coupling on a CM5 chip; analytes at 62.5, 125, 250, 500 and 1000 nM. To be noted: both partners purified.

B1: His×6-YY1(260–414) (domain or fragment, human, UniProt P25490 260-414, looked up)
chain: LPPGGIPGIDLSDPKQLAEFARMKPRKIKEDDAPRTIACPHKGCTKMFRDNSAMRKHLHTHGPRVHVCAECGKAFVESSKLKRHQLVHTGEKPFQCTFEGCGKRFSLDFNLRTHVRIHTGDRPYVCPFDGCNKKFAQSTNLKSHILTHAKAKNNQ
notes: source: bacteria, recombinant, purified
As to B1, the binding result was “binds”.
